Broadly, the Km is the substrate concentration at which the rate is half of its maximum.

Substrate in the data set: Cc1cc(=O)oc2c(F)c(OP(=O)(O)O)c(F)cc12
The data set is described as follows: purified protein, by the assay type. More on the design: DiFMUP hydrolysis by purified PTPs, fluorescence Ex355/Em460, initial rates over 10 min; Michaelis-Menten and Lineweaver-Burk Km. The method, then: The enzymatic activity of each PTP was evaluated using 6,8-difluoro-4-methylumbelliferyl phosphate (DiFMUP) as the surrogate substrate. To reach within the range of the initial rate (v0) during the measurement for 10 min, the pH and concentration of each PTP were optimized and are listed in Table S3. To determine the Km values, each PTP with optimized concentration was added to the reaction buffer (20 mM Bis-Tris at pH 6.0 or Tris at pH 7.0 and 8.0, 150 mM NaCl, 2.5 mM dithiothreitol (DTT), 0.01% Triton X-100) containing various concentrations of DiFMUP to obtain a final volume of 100 μL in a 96-well plate. Fluorescence intensities were measured once every minute for a complete 10 min duration using a Victor™ X4 Multilabel Plate Reader (Perkin Elmer, Waltham, MA, USA) at excitation/emission = 355 nm/460 nm. The initial rates of the reaction were determined using a previously described procedure for calculating the amount of product formation. To screen a library of 1033 natural products (Chengdu Biopurify Phytochemicals Ltd., Chengdu, China) against 20 PTPs, each PTP with an optimized concentration was added to the reaction buffer with an optimized pH containing DiFMUP (2 × Km for each PTP) after adding each compound (20 μM). […] The IC50 values were estimated using a sigmoid plot in GraphPad Prism 5 software (GraphPad Software Inc., San Diego, CA, USA). The Hill coefficient (nH), the degree of cooperativity, was calculated according to a previously published method. To determine the inhibition constant (Ki) and identify the inhibition mode of EG, various concentrations of EG (2.5, 5, 10, and 20 μM) were assayed with various concentrations of DiFMUP (260, 130, 65, and 32.5 μM). Kinetic parameters were obtained using Dixon plots for Ki and Lineweaver-Burk plots for the inhibition mode.

B1: SSH2 (Homo sapiens) (protein)
chain: MALVTVQRSPTPSTTSSPCASEADSGEEECRSQPRSISESFLTVKGAALFLPRGNGSSTPRISHRRNKHAGDLQQHLQAMFILLRPEDNIRLAVRLESTYQNRTRYMVVVSTNGRQDTEESIVLGMDFSSNDSSTCTMGLVLPLWSDTLIHLDGDGGFSVSTDNRVHIFKPVSVQAMWSALQSLHKACEVARAHNYYPGSLFLTWVSYYESHINSDQSSVNEWNAMQDVQSHRPDSPALFTDIPTERERTERLIKTKLREIMMQKDLENITSKEIRTELEMQMVCNLREFKEFIDNEMIVILGQMDSPTQIFEHVFLGSEWNASNLEDLQNRGVRYILNVTREIDNFFPGVFEYHNIRVYDEEATDLLAYWNDTYKFISKAKKHGSKCLVHCKMGVSRSASTVIAYAMKEYGWNLDRAYDYVKERRTVTKPNPSFMRQLEEYQGILLASKQRHNKLWRSHSDSDLSDHHEPICKPGLELNKKDITTSADQIAEVKTMESHPPIPPVFVEHMVPQDANQKGLCTKERMICLEFTSREFHAGQIEDELNLNDINGCSSGCCLNESKFPLDNCHASKALIQPGHVPEMANKFPDLTVEDLETDALKADMNVHLLPMEELTSPLKDPPMSPDPESPSPQPSCQTEISDFSTDRIDFFSALEKFVELSQETRSRSFSHSRMEELGGGRNESCRLSVVEVAPSKVTADDQRSSSLSNTPHASEESSMDEEQSKAISELVSPDIFMQSHSENAISVKEIVTEIESISQGVGQIQLKGDILPNPCHTPKKNSIHELLLERAQTPENKPGHMEQDEDSCTAQPELAKDSGMCNPEGCLTTHSSIADLEEGEPAEGEQELQGSGMHPGAKWYPGSVRRATLEFEERLRQEQEHHGAAPTCTSLSTRKNSKNDSSVADLAPKGKSDEAPPEHSFVLKEPEMSKGKGKYSGSEAGSLSHSEQNATVPAPRVLEFDHLPDPQEGPGSDTGTQQEGVLKDLRTVIPYQESETQAVPLPLPKRVEIIEYTHIVTSPNHTGPGSEIATSEKSGEQGLRKVNMEKSVTVLCTLDENLNRTLDPNQVSLHPQVLPLPHSSSPEHNRPTDHPTSILSSPEDRGSSLSTALETAAPFVSHTTHLLSASLDYLHPQTMVHLEGFTEQSSTTDEPSAEQVSWEESQESPLSSGSEVPYKDSQLSSADLSLISKLGDNTGELQEKMDPLPVACRLPHSSSSENIKSLSHSPGVVKERAKEIESRVVFQAGLTKPSQMRRSASLAKLGYLDLCKDCLPEREPASCESPHLKLLQPFLRTDSGMHAMEDQESLENPGAPHNPEPTKSFVEQLTTTECIVQSKPVERPLVQYAKEFGSSQQYLLPRAGLELTSSEGGLPVLQTQGLQCACPAPGLAVAPRQQHGRTHPLRRLKKANDKKRTTNPFYNTM
As for B1, the Km stood at 215.3 µM.

B2: PTPN2 (Homo sapiens) (protein)
chain: MPTTIEREFEELDTQRRWQPLYLEIRNESHDYPHRVAKFPENRNRNRYRDVSPYDHSRVKLQNAENDYINASLVDIEEAQRSYILTQGPLPNTCCHFWLMVWQQKTKAVVMLNRIVEKESVKCAQYWPTDDQEMLFKETGFSVKLLSEDVKSYYTVHLLQLENINSGETRTISHFHYTTWPDFGVPESPASFLNFLFKVRESGSLNPDHGPAVIHCSAGIGRSGTFSLVDTCLVLMEKGDDINIKQVLLNMRKYRMGLIQTPDQLRFSYMAIIEGAKCIKGDSSIQKRWKELSKEDLSPAFDHSPNKIMTEKYNGNRIGLEEEKLTGDRCTGLSSKMQDTMEENSESALRKRIREDRKATTAQKVQQMKQRLNENERKRKRWLYWQPILTKMGFMSVILVGAFVGWTLFFQQNAL
Regarding B2, the Km came out at 20.0 µM.

For the origin of these results see article PMC9105384, “Ethyl Gallate Dual-Targeting PTPN6 and PPARγ Shows Anti-Diabetic and Anti-Obese Effects” (International Journal of Molecular Sciences, 2022).
